Measured values from PMC7642358 (Nature Communications, 2020).
Changes are numbered by the printed parent chain.

B1: 44 (VHH)
VHH: QVQLVESGGGLVQAGGSLRLSCAASGFPVERKHMLWYRQSPGKEREWVAAIVSYGNYTTYADSVKGRFTISRDNAKNTVYLQMNSLKPEDTAVYYCNVKDHGFNTVLYDYWGQGTQVTVS
B2: 57 (VHH)
VHH: QVQLVESGGGLVQAGGSLRLSCAASGFPVEHDHMHWYRQAPGKEREWVAAIVSQGAYTVYADSVKGRFTISRDNAKNTVYLQMNSLKPEDTAVYYCNVKDWGRAGARYDYWGQGTQVTVS
B3: 68 (VHH)
VHH: QVQLVESGGGSVQAGGSLRLSCAASGTITNIGYLGWFRQAPGKEREGVAALKTYDGYTYYADSVKGRFTVSLDNAKNTVYLQMNSLKPEDTALYYCAAARHGRDEPLSYMYYSYWGQGTQVTVS
B4: 73 (VHH)
VHH: B3 VHH with T27K, T29Y, N30Q, K52M, Y54T, D104E, E105R, S108H, M110W
B5: 45 (VHH)
VHH: QVQLVESGGGLVQAGGSLRLSCAASGFPVAGTWMEWYRQAPGKEREWVAAITSYGYRTYYADSVKGRFTISRDNAKNTVYLQMNSLKPEDTAVYYCNVKDEGKSSQVYDYWGQGTQVTVS
B6: 66 (VHH)
VHH: B5 VHH with V29E, A30V, G31N, K103S, S104Q, Q106W, V107A
B7: 54 (VHH)
VHH: B5 VHH with A30W, G31N, Y56F, R57K, K103N, S105Q, Q106S, V107H
B8: 52 (VHH)
VHH: B5 VHH with A30N, G31Y, T32N, Y54W, R57K, K103M, S104W, S105Q, Q106H, V107Y
B9: 61 (VHH)
VHH: B5 VHH with A30Q, G31H, T32E, E101T, K103T, S104Y, S105Q, Q106A, V107W
B10: 58 (VHH)
VHH: B5 VHH with A30D, G31A, T32A, E101M, G102D, K103R, S104W, S105R, Q106T, V107T
B11: 46 (VHH)
VHH: QVQLVESGGGLVQAGGSLRLSCAASGFPVNYTIMFWYRKAPGKEREWVAAIKSHGATTLYADSVKGRFTISRDNAKNTVYLQMNSLKPEDTAVYYCNVKDVGNDQKSYDYWGQGTQVTVS
B12: 51 (VHH)
VHH: QVQLVESGGGLVQAGGSLRLSCAASGFPVKETWMHWYRQAPGKEREWVAAITSFGYKTYYADSVKGRFTISRDNAKNTVYLQMNSLKPEDTAVYYCNVKDAGDVTHQYDYWGQGTQVTVS
B13: 63 (VHH)
VHH: QVQLVESGGGLVQAGGSLRLSCAASGFPVNAEIMFWYRQAPGKEREWVAAIKSAGTTTLYADSVKGRFTISRDNAKNTVYLQMNSLKPEDTAVYYCNVKDYGAQAHYYDYWGQGTQVTVS
B14: 71 (VHH)
VHH: QVQLVESGGGSVQAGGSLRLSCAASGNIQHIKYLGWFRQAPGREREGVAALMTRYGQTYYADSVKGRFTVSLDNAKNTVYLQMNSLKPEDTALYYCAAAHYGDNFPLAYQAYLYWGQGTQVTVS
B15: 60 (VHH)
VHH: QVQLVESGGGLVQAGGSLRLSCAASGFPVVAWQMTWYRQAPGKEREWVAAIRSFGVSTHYADSVKGRFTISRDNAKNTVYLQMNSLKPEDTAVYYCNVKDWGYEYEGYDYWGQGTQVTVS
B16: 69 (VHH)
VHH: QVQLVESGGGSVQAGGSLRLSCAASGYISEISYLGWFRQAPGKEREGVAALITGWGHTYYADSVKGRFTVSLDNAKNTVYLQMNSLKPEDTALYYCAAAQTGAWYPLETYIYHYWGQGTQVTVS
B17: 47 (VHH)
VHH: QVQLVESGGGLVQAGGSLRLSCAASGFPVVWAHMHWYRQAPGKEREWVAAITSEGAHTIYADSVKGRFTISRDNAKNTVYLQMNSLKPEDTAVYYCNVKDWGTYSTYYDYWGQGTQVTVS
B18: 49 (VHH)
VHH: B17 VHH with V30H, W31Y, A32T, T52A, E54S, H57Y, I59V, S105N
B19: 50 (VHH)
VHH: B2 VHH with E30Q, H31Y, D32E, Q54E, V59H, R103W, A104L, G105A, A106Q, R107Y
B20: 67 (VHH)
VHH: B17 VHH with V30M, H35A, T52V, E54A, H57Y, I59H, S105N, T106S
B21: 48 (VHH)
VHH: QVQLVESGGGLVQAGGSLRLSCAASGFPVAHWWMEWYRQAPGKEREWVAAIFSEGNWTHYADSVKGRFTISRDNAKNTVYLQMNSLKPEDTAVYYCNVKDTGATQFAYDYWGQGTQVTVS
B22: 62 (VHH)
VHH: QVQLVESGGGLVQAGGSLRLSCAASGFPVEQEHMYWYRQASGKEREWVAAIVSEGAYTAYADSVKGRFTISRDNAKNTVYLQMNSLKPEDTAVYYCNVKDWGGYQWYYDYWGQGTQVTVS
B23: 53 (VHH)
VHH: QVQLVESGGGLVQAGGSLRLSCAASGFPVYATVMHWYRQAPGKEREWVAAIYSTGMWTLYADSVKGRFTISRDNAKNTVYLQMNSLKPEDTAVYYCNVKDEGYDYYYYDYWGQGTQVTVS
B24: 64 (VHH)
VHH: QVQLVESGGGLVQAGGSLRLSCAASGFPVYNRYMLWYRQAPGKEREWVAAITSYGYHTTYADSVKGRFTISRDNAKNTVYLQMNSLKPEDTAVYYCNVKDYGQHQQVYDYWGQGTQVTVS
B25: 56 (VHH)
VHH: QVQLVESGGGLVQAGGSLRLSCAASGFPVEMWSMEWYRQAPGKEREWVAAIMSFGYQTWYADSVKGRFTISRDNAKNTVYLQMNSLKPEDTAVYYCNVKDAGNSKALYDYWGQGTQVTVS

Each binder was assayed against SARS-CoV-2 spike receptor-binding domain (2019-nCoV RBD-SD1, residues 319–566) (SARS-CoV-2, UniProt P0DTC2).

Row | Binder | binding result
1 | B1 | binds
2 | B2 | binds
3 | B3 | binds
4 | B4 | binds
5 | B5 | binds
6 | B6 | binds
7 | B7 | binds
8 | B8 | binds
9 | B9 | binds
10 | B10 | binds
11 | B11 | binds
12 | B12 | binds
13 | B13 | binds
14 | B14 | binds
15 | B15 | binds
16 | B16 | binds
17 | B17 | binds
18 | B18 | binds
19 | B19 | binds
20 | B20 | binds
21 | B21 | binds
22 | B22 | binds
23 | B23 | binds
24 | B24 | binds
25 | B25 | binds
